{"source": "the DeepSol protein solubility set"}
{"experiment": "soluble on expression in E. coli; label from the status in PepcDB or PDB records"}
{"sequence": "MTDYFTAHDVLKKVEGLNSLSTLNKWANFIQKECDYQFHYDYIRFASHTRTKRTINHRKTRMFSLEEIQKFQKVIKLIPILGRNTSLRKLFDKKHHLDTMNHSELLTEIINQIEVKLANKEELFQALTKKYQQLERSYQTLEQRLAQLEESLSTQEQTSSGWFRRKR", "soluble on expression in E. coli": "not soluble"}
{"sequence": "VRPLNCIVAVSQNMGIGKNGDLPWPPLRNEFKYFQRMTTTSSVEGKQNLVIMGRKTWFSIPEKNRPLKDRINIVLSRELKEPPRGAHFLAKSLDDALRLIEQPELASKVDMVWIVGGSSVYQEAMNQPGHLRLFVTRIMQEFESDTFFPEIDLGKYKLLPEYPGVLSEVQEEKGIKYKFEVYEKKD", "soluble on expression in E. coli": "soluble"}
{"sequence": "MGHHHHHHSHIAMRRDRGPKPALGGAGEVEPGGMAASPTGRPRRLQRYLQSGEFDQFRDFPIFESNFVQVTRLGEVANEVTMGVAASSPALELPDLLLLAGPAKENGHLQLFGLFPLKFVQLFVHDKSRCQLEVKLNTSRTFYLQLRAPLKTRDREFGQWVRLLYRLRFLSASAVPFTQE", "soluble on expression in E. coli": "not soluble"}
{"sequence": "QTVAIKMGADNGMLAFEPSTIEIQAGDTVQWVNNKLAPHNVVVEGQPELSHKDLAFSPGETFEATFSEPGTYTYYCEPHRGAGMVGKIVVQ", "soluble on expression in E. coli": "soluble"}
{"sequence": "MAKKKKEILFCDYYEDWVETYKVGAIEDVTLNKYYVAARQLRDICPKLLMSDFSRKDYQLIMNEYGKTHEKQTAKDFHHHIKAAILDAYHDGLLKSDPTYRAVIKGKELEHHHHHH", "soluble on expression in E. coli": "not soluble"}
{"sequence": "MGSDKIHHHHHHMAEAGTLAVLVPEITIEELFTAQGADLSRRSPRQDMVDLNIKLLAEARELAKVSIIWQEVKVLGSQQQELYLEGGLTLRGSLLPKVLGPAESAVLFAMTIGEGIDERVKEYTHQGKTLEAFILDAAGSAILAKAAYHAISELAGLYKEKQLDTTFSLGPGHSYWKGLEDVRTIIDYLKGEQIGISLTDSNLMLPKKSIAMVMGVGSNLPDFKGKTHCDFCHLKGSCTMRELGVNNC", "soluble on expression in E. coli": "not soluble"}
{"sequence": "MAGCSMMKVDRTFPDLKEIPVDLATRFRQMIEWLEIANSECRLTPYKKISHIYQIFHSQGVLECLFRRGEDDISFMIEASVYLLDHPLDGSRSSSPTICDFAGVLPTIFVTFRNKRLGTMVSGASVEFMEFAHHIQEHIHRTSFPEIRTAEIHKISLIDVRFGNMDRNAKNIIVKVEDNIPHFVPIDHEMCFINTGQNYNLCKPYWLSLEDSSIYEA", "soluble on expression in E. coli": "soluble"}
{"sequence": "MDKELNPSIGDYTGRTVDTLQNAVYIRLMTPLGSWWADKTLGSLLHLLQREKDLQRVSLLAEQYADEALQPIVKSGRADKITVRAEQPHDGRLILHIRMDTAAGGFDYRHEVPVI", "soluble on expression in E. coli": "not soluble"}
{"sequence": "MSDVARILKEARDQGRLTALDFAKEIFDDFIELHGDRNFRDDGAVIGGIGRLNGQAVTVVGIQKGKNLQDNLNRNFGQPHPEGYRKALRLMKQAEKFGRSVVTFINTAGAYPGVGAEERGQGEAIARNLMEMSDLKVPIIAIIIGEGGSGGALALAVADKVWMLENTIYSILSPEGFATILWKDGSRSEEAAELMKITSGELLNMGIVDKVIPERGYFTSEIIEAIKTAIVDELAELSQLSTEDLLEARYQRFRKY", "soluble on expression in E. coli": "not soluble"}
{"sequence": "MSLNPSGKYQVKILGIEDYQALTACQSACPLGTDTKRYVRAITEGDYEKAFLIARQTNPLVSVCSRVCTAPCEKSCRKGEQGHPVDIRALKRFACDKHGVTSPRAVAGRLEEISRQNGGVGDRTGNHILTMAAVQKAGAAATSRKPAPRVAIIGSGPTGLSAAHDLALLGYGVTIFEAAPYAGGMLRTGIPAFRLPKDVLQQEIDAILNLGVELKLNSPIGEDLTLADLKAQGYESVFITIGLQDPLRILNIEGTDLAGIYSGVEYVRDHEKIRLGKRCLVIGGGGVAIDCAQHAVRQGAEQVMIACLESWETMPASLTEREDAQEEGIVFHPALGPRRFMGHNGHVARAEFLQVSSVFDSEGRFAPTFVPDSTTTLEVDSVILAVGQASTAPSLAGLAGLDLTPNGLIKAAEDMSTNLPGVFAGGDVRWRFTRNATDAIADGQKAARAIHGYLSGHTPQVIRKGFMRPVSPDFENTRCDTIAPVPIPKRDAGERVRTKEEITIGFGEAEAREQAARCRRCNIQTVFERSRCLRCGTCVDTCVNGALRIVRLADIQGDEDVAKLTDALKKSAQTRSKAMTAIIKDESRCASCGMCARRCPGGAITMAEFYCQEEWEEGHHHHHH", "soluble on expression in E. coli": "soluble"}
{"sequence": "GPGSMSAIKRSLNVGVVGMGNMGIPITRNLAFKARSAMYLQIHSRTLSKARQVCDDMSADGATCAMRIHDRYSTMTKWCDVILLTLAHRAASRKVLLEDSEALVTNARPGQIIVDHTTVDMELSRECAHEAERRGAVFLDAPMSGSPKQAFNNQLVLMVGGPAEQVQRVSPIFRMYADHIHHMGANGSGTAAKLLSQALVASHNAAAAEAMTIANRLGIEDYQKLIQVLDASWGSSTMLRRNAPTMQDLVRNPDKLAPSSGASIDNLLEDLALLDASLPKIEKGDNGNGGREVEEERFPVLDASLRMLGAAVESGMGDRDMAAVIHYIPAAAAMEKEEGVRVQPRGLTSGAFLDRNATGKVNSGPAAAAGAAVAASSPPTPAEIEMDPGSLADSLSAAESSSNGKGSTTQAASIAEPLTTASSQQPPAFTPEDFY", "soluble on expression in E. coli": "soluble"}
{"sequence": "MSLTSDKIFFHHLDNLRPSLTPVKELKEPVGQIVCTDKGILAVEQNKVLIPPAWNKTFAWGYADLSCRLGTYESDKAVTVYECLSEWGQILCAVCPNPKLVITGGTSTVVCVWEMGTSKEKAKPLTLKQALLGHTDTVTCATASLAYHIIVSGSRDRTCIIWDLNKLSFLTQLRGHRAPVSALCINELTGDIVSCAGTYIHVWSINGNPIVSVNTFTGRSQQIVCCCMSEMNEWDTQNVIVTGHSDGVVRFWRMEFLQVPETPAPEPVEDLEMQEGCPEAQIGQQAQDDDSSDSETEEPSVSQDPKDTSSQPSSTSHRPRAASCRATATWCTDSGSDDSRRWSDQLSLDEKDGFIFVNYSEGQTRAHLQGPLAHPHPNPIEARSYSRLKPGYRWERQLVFRSKLTMHTAFDRKDNTHPAEVTALGVSKDHSRILVGDSRGRVFSWSVSDQPGRSAADHWVKDEGGDSCSGCSVRFSLTERRHHCRNCGQLFCQKCSRFQSEIKRLKISSPVRVCQNCYYSLQHERGAEDGPRNCEGHHHHHH", "soluble on expression in E. coli": "not soluble"}
{"sequence": "ARIMKAIFVLNAAPKDNTWYAGGKLGWSQYHDTGFYGNGFQNNNGPTRNDQLGAGAFGGYQVNPYLGFEMGYDWLGRMAYKGSVDNGAFKAQGVQLTAKLGYPITDDLDIYTRLGGMVWRADSKGNYASTGVSRSEHDTGVSPVFAGGVEWAVTRDIATRLEYQWVNNIGDAGTVGTRPDNGMLSLGVSYRFGQEDAAPVVAPAPAPAPEHHHHHH", "soluble on expression in E. coli": "soluble"}
{"sequence": "MREDHSPRRNNTIENTLTELLPNRLYFGCFPNPDAIDKSDKSVKKTCFININNKFHYEPFYEDFGPWNLSVLYRLCVQVGKLLEVEEKRSRRVVLFCQDDGTGQYDKIRVNTAYVLGAYLIIYQGFSADDAYLKVSSGETVKFVGFRDASMGSPQYLLHLHDVLRGIEKALKFGWLDFSDFDYEEYEFYERVENGDFNWIIPGKILSFCGPHNESREENGYPYHAPDVYFDYFRENKVSTIVRLNAKNYDASKFTKAGFDHVDLFFIDGSTPSDEIMLKFIKVVDNTKGGVAVHCKAGLGRTGTLIACWMMKEYGLTAGECMGWLRVCRPGSVIGPQQPYLIEKQKFCWSLSQSNGVHLTQNKEEKRNVRRLVNQVDDINLGEERISPKSRENTRPNILRRRVQVQNGRSTAPVTIAPAGTSESRRSTKPSRVVDETALDDQGRSQGDRLLQLKAKHQHESETTSPNSSSSRRFVKSSTPQMTVPSQAYLNRNREPIIVTPSKNGTSSGTSSRQLKTTPNGNVAYRTRNSSGNTTSTLTRTPASAVFPSMASRRSETTRYLSPTTPIKPMSPSYTDGTSPRYKARLRSENPIGSTTSTPFSLQPQFGLVRVPPDSPHSIMAHRPPPTTSSRAPLSPHNYSTTQGYSTSSRGLYGDKKPLARGSVSTSTLPSMYMTRKMSENGAVEVEITTSYVEDRKAAEQIDPSSTPPEPKRRFVLVSRKIVSKEVPSAGPTCSNDPRLNYASTRKLPIKISHRLCQICRTIKPIADISMMTDENEKLFILLAAIFQRKLFVEECTRIYKQPAVYTCSSHYSEASTAILNMFGVGGALRIFRARPRKVSQVEKFASHLMGKQFEEDKLIHSAYMFVLNHPEAGAVTGPIIKEEDIPFEETVECSSTTAVNGILPKCFRQPRKQKLEEDSCSSSILRIIKKTTPSLPNRSYTMINQNMEHPLQCCYCLEVYEKRYMTQVPKTEQRIARWVAILGEQFRIRLRMKPANYMCRKHFPQADFSSRGRLLKTAVPNVVSQEKVLAFKLEGNTFVEVKEDNTNIKMEKGTDSEIDIEN", "soluble on expression in E. coli": "not soluble"}
{"sequence": "MLQINQMFSVQLSLGEQTWESEGSSIKKAQQAVANKALTESTLPKPVQKPPKSNVNNNPGSITPTVELNGLAMKRGEPAIYRPLDPKPFPNYRANYNFRGMYNQRYHCPVPKIFYVQLTVGNNEFFGEGKTRQAARHNAAMKALQALQNEPIPERSPQNGESGKDMDDDKDANKSEISLVFEIALKRNMPVSFEVIKESGPPHMKSFVTRVSVGEFSAEGEGNSKKLSKKRAATTVLQELKKLPPLPVVEKPKLFFKKRPKTIVKAGPEYGQGMNPISRLAQIQQAKKEKEPDYVLLSERGMPRRREFVMQVKVGNEVATGTGPNKKIAKKNAAEAMLLQLGYKASTNLQDQLEKTGENKGWSGPKPGFPEPTNNTPKGILHLSPDVYQEMEASRHKVISGTTLGYLSPKDMNQPSSSFFSISPTSNSSATIARELLMNGTSSTAEAIGLKGSSPTPPCSPVQPSKQLEYLARIQGFQAALSALKQFSEQGLDPIDGAMNIEKGSLEKQAKHLREKADNNQAPPGSIAQDCKKSNSAV", "soluble on expression in E. coli": "soluble"}
{"sequence": "MRERLKGVIKKGVKVFFTDESGIHHDPSKVRRLGLYNVPVDYPSRKLNVLASIPLFDGVPCFMSTYSNVNFKIFAEFLRLFRNSGPIVLILDSAKFHKNAYVFSVASQLGITLLFLPPYSPDLNPIEFGGTWFVG", "soluble on expression in E. coli": "soluble"}
{"sequence": "MGSDDQSAGDRIQKGFQINYMILRDADSGKIIWQENKDFSAPDQEHEARVPVKILDMRAVSREINFSTIESMENFRLDQKVLFKGRIMEEWFFEMGFVGANTTNTWQSTIEAAPESQMMPAKVLNGNVTIQTSFYDNETLITKSVVRLYYILEHHHHHH", "soluble on expression in E. coli": "not soluble"}
{"sequence": "MGSDKIHHHHHHMKMSEKKEARVVINDLLAEQYANAFKAKEEGRPVGWSTSVFPQELAEVFDLNVLYPENQAAGVAAKKGSLELCEIAESKGYSIDLCAYARTNFGLLENGGCEALDMPAPDFLLCCNNICNQVIKWYENISRELDIPLIMIDTTFNNEDEVTQSRIDYIKAQFEEAIKQLEIISGKKFDPKKFEEVMKISAENGRLWKYSMSLPADSSPSPMNGFDLFTYMAVIVCARGKKETTEAFKLLIEELEDNMKTGKSSFRGEEKYRIMMEGIPCWPYIGYKMKTLAKFGVNMTGSVYPHAWALQYEVNDLDGMAVAYSTMFNNVNLDRMTKYRVDSLVEGKCDGAFYHMNRSCKLMSLIQYEMQRRAAEETGLPYAGFDGDQADPRAFTNAQFETRIQGLVEVMEERKKLNRGEI", "soluble on expression in E. coli": "not soluble"}
{"sequence": "MSEKVVFSQLSRKFIDENDATPAEAQQVVYYSLAIGHHLGVIDCLEAALTCPWDEYLAWIATLEAGSEARRKMEGVPKYGEIVIDINHVPMLANAFDKARAAQTSQQKEWSTMLLSMLHDIHQENAIYLMVRRLRD", "soluble on expression in E. coli": "not soluble"}
{"sequence": "MKFGKEIAKKNQIIYRYIILKIQSFEWPANTRIFSERQLEIRFNSSRSQIRSVLATLLNKNIIRYTKNTPGYFVCKDVGFSFFHKTQDNLKVKYAKLSTLIKKLLSQDDASVFANIDSTVHLDKFKGIEAKFFDENKKHFLNVCFFAKDDILNILDENNLQQQFFREFAYNGIAIEKRHCVTSVDKESGCLVMYDMYYDDNDNFVVASKSNFLNPELKVINA", "soluble on expression in E. coli": "soluble"}
